According to patent US20210069342A1 (LEGOCHEM BIOSCIENCES, published 2021):

Legend:
[1] = target: T1, recombinant human ROR1-His (Sino Biological, 13968-H08H) (human, UniProt Q01973 30-406); assay: BLI (Octet), ROR1-His on Anti-Penta-His or AR2G biosensor, IgG 30 to 0.021 nM, 1:1 fit
T1 construct: extracellular domain; Bought protein; also called ROR1-HIS protein; not shown: His tag
Description: A 96-well black microplate (greiner bio one) was mounted on a biosensor tray case, and 200 10×KB or DW was added to each of 8 wells. Then Anti Penta His biosensors or 8 AR2G biosensors (ForteBio, USA) were inserted to hydrate for 10 minutes. 600 of the assay samples were diluted 2-fold or 3-fold to the appropriate assay concentrations, using 1×KB or 10×KB to 30 to 0.021 nM. To immobilize the antigen, recombinant human ROR1-His (Sino Biological, 13968-H08H) was diluted to 1 /ML with 10×KB or Sodium Acetate pH5 buffer. Immobilization was fixed at a threshold of 0.3 nm in the loading step. The association assay was carried out for 3 to 10 minutes, and the dissociation assay was carried out for 20 minutes. According to the Octet program template, the buffer was placed in a new 96-well black microplate according to order. As Baseline1, 200 10×KB or DW was placed. Then 200 each of 1 /mL of the antigen to be loaded, the ROR1-HIS protein, was added. As Baseline2, 200 10×KB or 1×KB was placed. Then to each well 30 to 0.021 nM of the diluted antibody and 200 each of 10×KB buffer or 1×KB corresponding to a reference blank was added. The temperature of the test plate was fixed at 30° C. After all of the samples were introduced, the equipment was started, and after the assay was completed, results were uploaded to the Octet Analysis 90 software, with KD values analyzed through 1:1 fitting. By obtaining KD values through the Octet assay method, it was confirmed that the anti-ROR1 antibody had strong binding potential to ROR1 antigen.

[2] = target: T2, recombinant mouse ROR1 protein (Acrobiosystems, RO1-M5221) (mouse, UniProt Q9Z139 30-403); assay: ELISA, wells coated with recombinant mouse ROR1 protein, IgG titrated, HRP anti-Fab detection, OD (450-650nm)
T2 construct: Bought protein; also called mouse ROR1 antigen
Description: (§1) Anti-ROR1 antibody antigen binding affinity was assessed using an ELISA-based solution binding assay. Specifically, a 96-well microtiter plate (Nunc-Immuno Plates), NUNC) was coated for 16 hours at 4° C. with the ROR1 protein described below at a concentration of 1 in PBS solution, and non-specific binding sites were blocked for 2 hours with 3% BSA (bovine serum albumin). Here, the ROR1 protein used was, in the case of human ROR1, the ROR1-Fc or recombinant human ROR1-His (Sino Biological, 13968-H08H) of Embodiment 1. The ROR1-His used in ELISA, as stated in the above sentence, was a protein from the Sino Biological company (13968-H08H), and the ROR1-His of Embodiment 1 or recombinant mouse ROR1 protein was used (Acrobiosystems, RO1-M5221-100 )
(§2) Subsequently, the anti-ROR1 antibodies prepared in Embodiment 3 were added at the concentrations stated in FIG. 2 to a 96-well microtiter plate, and binding capacity was analyzed using ELISA as follows. Specifically, after incubating for 2 hours, the plate was washed 5 times with PBS containing 0.05% Tween 20, then HRP-conjugated Fab multiclonal antibody reagent (Perce, 31414) was diluted to 1:10,000 and placed in the washed microtiter plate. After reacting for 1 hour at 37° C., the ROR1 antibodies bonded to the plate were detected. After the reaction, color development was performed using TMB (Tetramethylbenzidine, Sigma, T0440). The enzymatic reaction was stopped using 0.5 mol/L sulfuric acid, and absorbance at 450 nm and 650 nm was measured (450 nm-650 nm) using a micro plate reader (Molecular Device)

[3] = target: T3, human ROR2 over-expressed on CHO cells (CHO-human ROR2) (human, UniProt Q01974 34-943); assay: flow cytometry on CHO-S cells transiently over-expressing human ROR2, FITC anti-human Fc detection, MFI ratio to 2nd Ab alone
T3 construct: whole, on cells; Negative control; also called family protein human ROR2
Excerpt: (§3) For this experiment, using cell lines (FIG. 5 and FIG. 7, respectively) transiently (CHO-human ROR1, CHO-human ROR2, CHO-mouse ROR1) or stably (MC38-human ROR1) transfected with ROR1 gene to achieve artificial over-expression of ROR1 protein, an ROR1-expressing cell line (JeKo-1, Mino) (FIG. 6), a non ROR1-expressing cell line (MCF7) (FIG. 6) and a FACSCalibur (BD Biosciences) device was used to measure the degree to which anti-ROR1 antibody and ROR1 were bound, as follows. […] JeKo-1, Mino, CHO-human ROR1, CHO-mouse ROR1 and MC38-human ROR1 are all cell lines which express human ROR1 or mouse ROR1.
(§4) Specifically, after dissociating each cell line and washing in PBS, the number of cells was counted and adjusted to 2×10⁵ cells/200 PBS. Then the respective ROR1 monoclonal antibodies prepared in Embodiment 3 were diluted 5 times from 10 /mL or 10 /mL, then reacted for 1 hour at 4° C. After the reaction, the cells were washed in PBS, then FITC-marked constant region (Fc) specific antibody (Goat anti-human IgG FITC conjugate, Fc specific, Sigma, F9512, concentration 20 mg/ml) was suspended in 2 /1×10⁵ cells/200 PBS and reacted for 1 hour at 4° C. As for identification of the degree of expression of the transiently over-expressed human ROR1, human ROR2 and mouse ROR1, a commercially available FACS analysis antibody (anti-ROR1: R&D Systems, FAB 2000G, anti-ROR2: R&D, FAB20641P) was used. After reacting the cells were washed in PBS and analyzed using a FACSCalibur device. The negative control (2nd Ab) was only treated with FITC-marked constant region (Fc) specific antibody. The shifted readings for the respective experimental groups treated with ROR1 monoclonal antibody were compared against the shifted reading for the control group (MFI Ratio: MFI of anti-ROR1/MFI of 2nd Ab).

[4] = target: T1, recombinant human ROR1-His (Sino …); assay: ELISA, wells coated with human ROR1 protein (sheet: 'human ROR1'; text: ROR1-Fc or ROR1-His), IgG titrated, HRP anti-Fab detection, OD (450-650nm)
Description: as §1, §2

[5] = target: T4, human ROR1 expressed on the cell surface (human, UniProt Q01973 30-937); assay: flow cytometry on MC38-human ROR1 cells, IgG titrated, FITC anti-human Fc detection, MFI ratio to 2nd Ab alone; log axis whose first tick is printed 0
T4 construct: whole, on cells; also called cell surface-expressed ROR1 antigen; ROR1 on JeKo-1, Mino, CHO-human ROR1, MC38-human ROR1 and other cancer cell lines
Excerpt: as §3, §4

[6] = target: T1, recombinant human ROR1-His (Sino …); assay: ELISA, wells coated with human ROR1 protein (sheet: 'human ROR1'; text: ROR1-Fc or ROR1-His), IgG titrated, OD(450nm-650nm); x axis 'conc(nM)' numbered -5 to 2 (log10)
Description: as §1, §2

[7] = target: T2, recombinant mouse ROR1 protein …; assay: ELISA, IgG on coated mouse ROR1
Description: as §1
Subsequently, the anti-ROR1 antibodies prepared in Embodiment 3 were added at the concentrations stated in FIG. 2 to a 96-well microtiter plate, and binding capacity was analyzed using ELISA as follows. […] After reacting for 1 hour at 37° C., the ROR1 antibodies bonded to the plate were detected. […] The enzymatic reaction was stopped using 0.5 mol/L sulfuric acid, and absorbance at 450 nm and 650 nm was measured (450 nm-650 nm) using a micro plate reader (Molecular Device)

[8] = target: T5, mouse ROR1 over-expressed on CHO cells (CHO-mouse ROR1) (mouse, UniProt Q9Z139 30-937); assay: flow cytometry, CHO-mouse ROR1 cells
T5 construct: whole, on cells; also called cell surface-expressed mouse ROR1
Excerpt: as §3, §4

T3 sequence (Q01974 34-943): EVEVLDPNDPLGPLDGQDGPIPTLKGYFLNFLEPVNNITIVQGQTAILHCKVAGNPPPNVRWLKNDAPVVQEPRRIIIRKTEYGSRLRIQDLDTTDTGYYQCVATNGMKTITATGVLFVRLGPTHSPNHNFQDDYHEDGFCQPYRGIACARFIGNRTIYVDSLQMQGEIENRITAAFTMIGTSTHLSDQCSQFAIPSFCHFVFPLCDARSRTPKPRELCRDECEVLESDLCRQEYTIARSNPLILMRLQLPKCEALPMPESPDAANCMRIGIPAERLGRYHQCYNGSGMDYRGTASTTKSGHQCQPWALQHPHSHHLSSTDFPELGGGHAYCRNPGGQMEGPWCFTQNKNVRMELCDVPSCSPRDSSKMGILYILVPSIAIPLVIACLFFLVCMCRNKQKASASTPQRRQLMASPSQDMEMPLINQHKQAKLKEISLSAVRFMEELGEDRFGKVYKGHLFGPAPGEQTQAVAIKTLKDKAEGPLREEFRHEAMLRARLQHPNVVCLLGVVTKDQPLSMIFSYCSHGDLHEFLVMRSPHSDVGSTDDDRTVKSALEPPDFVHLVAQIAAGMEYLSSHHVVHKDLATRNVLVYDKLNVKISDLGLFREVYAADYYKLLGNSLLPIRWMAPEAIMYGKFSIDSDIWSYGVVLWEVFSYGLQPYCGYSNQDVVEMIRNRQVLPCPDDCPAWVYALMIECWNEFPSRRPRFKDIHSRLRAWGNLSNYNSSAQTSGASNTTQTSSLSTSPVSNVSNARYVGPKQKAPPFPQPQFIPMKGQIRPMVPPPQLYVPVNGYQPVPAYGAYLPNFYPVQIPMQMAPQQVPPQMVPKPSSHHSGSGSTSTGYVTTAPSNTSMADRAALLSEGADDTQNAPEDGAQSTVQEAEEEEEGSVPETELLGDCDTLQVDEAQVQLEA
T1 sequence (Q01973 30-406): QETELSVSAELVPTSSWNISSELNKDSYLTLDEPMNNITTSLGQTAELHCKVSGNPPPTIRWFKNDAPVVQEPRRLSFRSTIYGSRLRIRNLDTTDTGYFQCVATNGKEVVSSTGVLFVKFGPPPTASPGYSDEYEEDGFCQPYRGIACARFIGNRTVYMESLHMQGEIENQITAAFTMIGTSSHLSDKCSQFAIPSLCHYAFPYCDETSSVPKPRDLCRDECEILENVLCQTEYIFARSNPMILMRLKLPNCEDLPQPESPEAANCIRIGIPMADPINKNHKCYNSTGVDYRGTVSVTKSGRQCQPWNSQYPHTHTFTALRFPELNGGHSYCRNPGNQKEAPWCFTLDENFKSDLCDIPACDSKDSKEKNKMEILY
T4 sequence (Q01973 30-937): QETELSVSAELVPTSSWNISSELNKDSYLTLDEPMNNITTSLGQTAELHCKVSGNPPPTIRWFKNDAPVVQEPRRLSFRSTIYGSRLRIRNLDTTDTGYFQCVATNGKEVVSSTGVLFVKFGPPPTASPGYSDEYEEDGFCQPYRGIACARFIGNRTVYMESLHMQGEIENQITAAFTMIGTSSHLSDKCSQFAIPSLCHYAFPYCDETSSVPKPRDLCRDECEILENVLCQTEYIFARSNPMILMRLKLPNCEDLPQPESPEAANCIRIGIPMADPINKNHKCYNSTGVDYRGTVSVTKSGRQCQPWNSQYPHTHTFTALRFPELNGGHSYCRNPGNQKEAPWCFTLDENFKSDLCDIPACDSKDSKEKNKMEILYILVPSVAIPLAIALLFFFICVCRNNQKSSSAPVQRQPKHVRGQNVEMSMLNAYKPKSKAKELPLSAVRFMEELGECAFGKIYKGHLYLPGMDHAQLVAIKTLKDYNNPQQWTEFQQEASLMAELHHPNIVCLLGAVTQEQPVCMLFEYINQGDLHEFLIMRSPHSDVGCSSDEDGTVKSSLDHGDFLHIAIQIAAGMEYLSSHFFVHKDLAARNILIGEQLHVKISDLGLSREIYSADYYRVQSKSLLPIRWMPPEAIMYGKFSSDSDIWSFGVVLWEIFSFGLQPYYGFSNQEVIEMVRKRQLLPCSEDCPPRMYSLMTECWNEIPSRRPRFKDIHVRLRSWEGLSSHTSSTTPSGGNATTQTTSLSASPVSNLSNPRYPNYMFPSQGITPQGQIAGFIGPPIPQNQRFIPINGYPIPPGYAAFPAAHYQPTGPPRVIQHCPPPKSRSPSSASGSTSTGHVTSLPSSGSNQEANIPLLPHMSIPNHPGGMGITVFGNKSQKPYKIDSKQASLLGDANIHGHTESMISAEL
T2 sequence (Q9Z139 30-403 limits assumed): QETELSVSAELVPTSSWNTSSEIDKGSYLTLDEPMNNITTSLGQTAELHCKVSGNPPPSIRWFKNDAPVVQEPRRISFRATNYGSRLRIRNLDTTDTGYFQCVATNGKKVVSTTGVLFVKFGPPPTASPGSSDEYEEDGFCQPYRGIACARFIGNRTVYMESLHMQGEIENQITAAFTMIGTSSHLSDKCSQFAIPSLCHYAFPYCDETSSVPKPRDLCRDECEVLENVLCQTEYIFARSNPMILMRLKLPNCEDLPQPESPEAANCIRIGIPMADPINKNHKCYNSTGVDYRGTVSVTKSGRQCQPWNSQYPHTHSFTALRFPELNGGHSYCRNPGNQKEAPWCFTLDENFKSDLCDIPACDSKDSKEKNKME
T5 sequence (Q9Z139 30-937): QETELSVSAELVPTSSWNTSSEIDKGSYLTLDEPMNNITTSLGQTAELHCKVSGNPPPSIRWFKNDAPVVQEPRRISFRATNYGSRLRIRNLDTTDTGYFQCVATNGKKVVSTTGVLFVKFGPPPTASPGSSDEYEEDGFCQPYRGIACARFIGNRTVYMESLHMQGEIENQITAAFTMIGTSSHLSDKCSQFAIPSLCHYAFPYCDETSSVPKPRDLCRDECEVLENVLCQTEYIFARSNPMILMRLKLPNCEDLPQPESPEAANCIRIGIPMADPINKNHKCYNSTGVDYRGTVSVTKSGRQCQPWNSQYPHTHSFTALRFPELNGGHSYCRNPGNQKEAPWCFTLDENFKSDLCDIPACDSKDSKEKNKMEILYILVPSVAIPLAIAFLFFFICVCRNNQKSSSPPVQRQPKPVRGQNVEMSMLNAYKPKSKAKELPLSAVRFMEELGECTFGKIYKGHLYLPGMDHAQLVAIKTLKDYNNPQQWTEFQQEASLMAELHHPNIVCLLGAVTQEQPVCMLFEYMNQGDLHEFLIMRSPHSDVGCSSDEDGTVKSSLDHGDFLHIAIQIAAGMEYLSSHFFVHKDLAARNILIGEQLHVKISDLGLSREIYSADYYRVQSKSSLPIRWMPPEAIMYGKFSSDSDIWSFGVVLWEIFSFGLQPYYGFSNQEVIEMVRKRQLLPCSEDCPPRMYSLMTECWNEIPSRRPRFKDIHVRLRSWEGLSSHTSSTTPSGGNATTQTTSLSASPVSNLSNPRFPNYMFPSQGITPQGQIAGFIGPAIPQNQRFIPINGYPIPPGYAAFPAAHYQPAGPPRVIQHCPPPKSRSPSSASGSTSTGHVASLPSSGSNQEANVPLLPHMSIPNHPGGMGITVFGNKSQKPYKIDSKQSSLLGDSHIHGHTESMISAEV

Row | Binder | Kd [1] | koff [1] | kon [1] | EC50 (read off the curve) [2] | binding result [3] | EC50 (read off the curve) [4] | EC50 (read off the curve) [5] | EC50 (read off the curve) [6] | binding result [7] | binding result [8]
1 | anti-ROR1 IgG antibody AB4 (antibody, V domains shown, Full IgG form (human IgG1 constant region, lambda light chain), expressed in CHO-S cells) VH: EVQLLESGGGLVQPGGSLRLSCAASGFTFSSYDMSWVRQAPGKGLEWVSWISPDSGSIYYADSVKGRFTISRDNSKNTLYLQMNSLRAEDTAVYYCARPTGRFDYWGQGTLVTVSS VL: QSVLTQPPSASGTPGQRVTISCSGSSSNIGNNNVNWYQQLPGTAPKLLIYYDNKRPSGVPDRFSGSKSGTSASLAISGLRSEDEADYYCGTWDASLSGYVFGGGTKLTVLG | 63.9 pM | 0.000116 s⁻¹ | 1.81e+06 M⁻¹ s⁻¹ | ~200 pM | no binding | ~200 pM | ~0.1 µg/mL | – | – | –
2 | anti-ROR1 IgG antibody A2F2 (antibody, V domains shown, Full IgG form (human IgG1 constant region, lambda light chain), expressed in CHO-S cells) VH: EVQLLESGGGLVQPGGSLRLSCAASGFTFSDYYMSWVRQAPGKGLEWVSSISPDGSNTYYADSVKGRFTISRDNSKNTLYLQMNSLRAEDTAVYYCAKNLRAFDYWGQGTLVTVSS VL: QSVLTQPPPASGTPGQRVTISCSGSSSNIGSNTVYWYQQLPGTAPKLLIYANSQRPSGVPDRFSGSKSGTSASLAISGLRSEDEADYYCGSWDYSLSGYVFGGGTKLTVLG | 77.3 pM | 0.000119 s⁻¹ | 1.53e+06 M⁻¹ s⁻¹ | ~300 pM | no binding | ~200 pM | ~0.1 µg/mL | ~40 pM | – | –
3 | anti-ROR1 IgG antibody A2F3 (antibody, V domains shown, Full IgG form (human IgG1 constant region, lambda light chain), expressed in CHO-S cells) VH: EVQLLESGGGLVQPGGSLRLSCAASGFTFSSYDMSWVRQAPGKGLEWVSWISPGGGSKYYADSVKGRFTISRDNSKNTLYLQMNSLRAEDTAVYYCARVNGRFDYWGQGTLVTVSS VL: QSVLTQPPSASGTPGQRVTISCSGSSSNIGNNNVSWYQQLPGTAPKLLIYADSHRPSGVPDRFSGSKSGTSASLAISGLRSEDEADYYCATWDYSLSGYVFGGGTKLTVLG | 24 pM | 3.31e-05 s⁻¹ | 1.38e+06 M⁻¹ s⁻¹ | ~700 pM | no binding | ~600 pM | ~0.2 µg/mL | – | – | –

Further lines, results first:

Row | Kd [1] | koff [1] | kon [1] | EC50 (read off the curve) [2] | binding result [3] | EC50 (read off the curve) [4] | EC50 (read off the curve) [5] | EC50 (read off the curve) [6] | binding result [7] | binding result [8] | Binder
4 | 152 pM | 0.000338 s⁻¹ | 2.23e+06 M⁻¹ s⁻¹ | ~100 pM | no binding | ~100 pM | – | – | – | – | anti-ROR1 IgG antibody DG6 (antibody, V domains shown, Full IgG form (human IgG1 constant region, lambda light chain), expressed in CHO-S cells) VH: EVQLLESGGGLVQPGGSLRLSCAASGFTFSDYDMSWVRQAPGKGLEWVSVISPDGGSIYYADSVKGRFTISRDNSKNTLYLQMNSLRAEDTAVYYCARDVVECNMNPCSYDNAMDVWGQGTLVTVSS VL: QSVLTQPPSASGTPGQRVTISCSGSSSNIGSNYVSWYQQLPGTAPKLLIYDDSHRPSGVPDRFSGSKSGTSASLAISGLRSEDEADYYCGAWDDSLSGYVFGGGTKLTVLG
5 | 803 pM | 0.000361 s⁻¹ | 450000 M⁻¹ s⁻¹ | ~300 pM | no binding | ~200 pM | ~0.2 µg/mL | – | – | – | anti-ROR1 IgG antibody D2B12 (antibody, V domains shown, Full IgG form (human IgG1 constant region, lambda light chain), expressed in CHO-S cells) VH: EVQLLESGGGLVQPGGSLRLSCAASGFTFSNYDMSWVRQAPGKGLEWVSSISPSSGSSIYYADSVKGRFTISRDNSKNTLYLQMNSLRAEDTAVYYCAKAPGWCQAPSCYYDNAMDVWGQGTLVTVSS VL: QSVLTQPPSASGTPGQRVTISCSGSSSNIGNNDVSWYQQLPGTAPKLLIYDDSQRPSGVPDRFSGSKSGTSASLAISGLRSEDEADYYCGAWDDSLSGYVFGGGTKLTVLG
6 | – | – | – | – | – | – | – | ~60 pM | binds | binds | anti-ROR1 IgG antibody BA6 M1 (antibody, V domains shown, Full IgG form (human IgG1 constant region, lambda light chain), expressed in CHO-S cells) VH: EVQLLESGGGLVQPGGSLRLSCAASGFTFSNYDMSWVRQAPGKGLEWVSAIYHSGSSKYYADSVKGRFTISRDNSKNTLYLQMNSLRAEDTAVYYCARGGNAAWDTGFDYWGQGTLVTVSS VL: QSVLTQPPSASGTPGQRVTISCSGSSSNIGSNDVSWYQQLPGTAPKLLIYYDNNRPSGVPDRFSGSKSGTSASLAISGLRSEDEADYYCGAWDDSLSGYVFGGGTKLTVLG
7 | – | – | – | – | – | – | – | ~40 pM | binds | binds | anti-ROR1 IgG antibody A2F2 M1 (antibody, V domains shown, Full IgG form (human IgG1 constant region, lambda light chain), expressed in CHO-S cells) VH: EVQLLESGGGLVQPGGSLRLSCAASGFTFSDYYMSWVRQAPGKGLEWVSSISPDASNTYYADSVKGRFTISRDNSKNTLYLQMNSLRAEDTAVYYCAKNLRAFDYWGQGTLVTVSS VL: QSVLTQPPPASGTPGQRVTISCSGSSSNIGSNTVYWYQQLPGTAPKLLIYANSQRPSGVPDRFSGSKSGTSASLAISGLRSEDEADYYCGSWDYSLSGYVFGGGTKLTVLG
